Results: paper PMC8755724, “Single particle cryo-EM structure of the outer hair cell motor protein prestin” (Nature Communications, 2022)

Biological target: the molecule itself
Assay: cryo-EM structure; single-particle cryo-EM of detergent-solubilised prestin (extracted in digitonin, purified in GDN), about 2 mg/ml, 10 mM HEPES, 200 mM NaCl, 0.02% GDN, pH 7.4; C2 symmetry imposed; 3.6 Å

B1: full-length prestin from gerbil (Meriones unguiculatus) tagged at its C terminus with enhanced yellow fluorescent protein (EYFP) (natural protein, UniProt Q9JKQ2 1-744, looked up)
chain: MDHAEENEIPVATQKYHVERPIFSHPVLQERLHVKDKVSESIGDKLKQAFTCTPKKIRNIIYMFLPITKWLPAYKFKEYVLGDLVSGISTGVLQLPQGLAFAMLAAVPPVFGLYSSFYPVIMYCFFGTSRHISIGPFAVISLMIGGVAVRLVPDDIVIPGGVNATNGTEARDALRVKVAMSVTLLSGIIQFCLGVCRFGFVAIYLTEPLVRGFTTAAAVHVFTSMLKYLFGVKTKRYSGIFSVVYSTVAVLQNVKNLNVCSLGVGLMVFGLLLGGKEFNERFKEKLPAPIPLEFFAVVMGTGISAGFNLHESYSVDVVGTLPLGLLPPANPDTSLFHLVYVDAIAIAIVGFSVTISMAKTLANKHGYQVDGNQELIALGICNSIGSLFQTFSISCSLSRSLVQEGTGGKTQLAGCLASLMILLVILATGFLFESLPQAVLSAIVIVNLKGMFMQFSDLPFFWRTSKIELTIWLTTFVSSLFLGLDYGLITAVIIALLTVIYRTQSPSYKVLGQLPDTDVYIDIDAYEEVKEIPGIKIFQINAPIYYANSDLYSNALKRKTGVNPALIMGARRKAMRKYAKEVGNANIANAAVVKVDGEVDGENATKPEEEDDEVKYPPIVIKTTFPEELQRFMPQTENVHTIILDFTQVNFIDSVGVKTLAVMVKEYGDVGIYVYLAGCSPQVVNDLTRNRFFENPALKELLFHSIHDAVLGSHVREAMAEQEASAPPPQDDMEPNATPTTPEA
notes: prestin (Slc26a5), gerbil (Meriones unguiculatus), GenBank AF230376, full-length cDNA; the model is built to residue A726; also called Slc26a5; prestin-YFP; not shown: EYFP, C-terminal, kept
- stoichiometry N: 2
